Measured values as given in the supplement of paper PMC12042874.
± gives the uncertainty stated by the source.

Assay: amyloid nucleation score (Sup35N fusion, yeast selection) (log enrichment); library NNK2; higher = more nucleation; inactive = no reads after selection
Procedure, shortened: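 The nucleation score is a DiMSum log enrichment of output over input reads, centred on the mode score of non-aggregating sequences. Sequences under 100 input reads were excluded, and reads came from Illumina sequencing of plasmid inserts. Psi-negative yeast expressing Sup35N fused to peptides of 20 random codons were induced with 100 μM copper sulfate for 24 hours and grown 7 days at 30°C on medium lacking adenine and uracil. Random libraries had three technical output replicates.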

Row | Substance | amyloid nucleation score
1 | VEFSLSCHNMIFYVLD | 6.762 ± 0.028
2 | VIKMVMEVPVTGFPRSRNSF | -0.369 ± 1.1
3 | EDKLFINLSRELVFGKIRPT | 6.138 ± 0.053
4 | VGKVFLIPGSFYEIRLMTYF | 1.62 ± 0.13
5 | AHHYSESRGFRCCLTSGYFC | 0.818 ± 0.25
6 | YGSSGK | -0.362 ± 0.38
7 | TVRASCFRVSVRKEKKIVVA | 0.233 ± 0.77
8 | LWIIPQELGLCLMCGVVCCV | -1.41 ± 0.75
9 | SFCVALFSWSVYVTIRVHYR | -0.545 ± 0.79
10 | MPYTCMGVFVAHMEATE | 0.316 ± 0.4
11 | SNYVFTNRGLIFRDFRVSDE | 5.56 ± 0.086
12 | FDGLIFSITRTLVY | -1.42 ± 1.1
13 | KHMNAYCNVTYQIDFRCIIS | inactive
14 | SAWVTNIFDNKLCVAVTEFR | 4.04 ± 0.06
15 | AYHDYLSRGGTHVVVCYYLS | inactive
16 | RFDWRFCVVNRPGGKWLVVR | 0.824 ± 0.29
17 | VWYITIYIWGMRRLIAWRMS | 0.31 ± 0.74
18 | QNNKILFWQ | 0.039 ± 0.31
19 | WFAGFMCRVLACTFSALKLS | -0.917 ± 0.78
20 | SNLLWAKSGPKAVWKPGRWD | 0.423 ± 0.41
21 | SDTSVRGLLLEVCRWSGWVA | 1.33 ± 0.35
22 | MHSLISELLLPNTIFGSAGI | -0.707 ± 0.76
23 | SCNRRSSVVPWWWLTFRRWN | -1.16 ± 1.1
24 | LATNNVS | 0.979 ± 0.67
25 | FDFLSSFPRLWVRVEGIPCF | -0.994 ± 0.55

Row | Substance | amyloid nucleation score
26 | SMSLRTCSLSFVSWMKFKDG | 0.095 ± 0.45
27 | SVLCEGTPEETTFLSDRLSG | 1.09 ± 0.27
28 | DYLRYRYSMFCTCPAVTQS | -0.567 ± 0.78
29 | PTYFWKQQCWVHYICWIMSY | -1.15 ± 0.35
30 | IESSGWAGRGTYSTYLASNV | 1.2 ± 0.66
31 | LESHLVMRYS | -0.307 ± 0.48
32 | LNMVLDF | inactive
33 | QFSLMRAIFMWASPRSWLLD | inactive
34 | LLEFWDHLVYSMIECNRKNV | inactive
35 | VSVWYGGLVRVRSTWCKIKF | 1.13 ± 0.13
36 | MVFAPIVYEIKRDIKMLFGA | 5.947 ± 0.029
37 | FVSSII | -1.29 ± 0.39
38 | ISSDLWVHSFNTILSENGVC | -0.674 ± 0.63
39 | SGTWMGAATY | 3.62 ± 0.11
40 | WSVWVRDSGSRMS | 1.22 ± 0.13
41 | DLGYDLTINWAFERLADRVN | -1.46 ± 1
42 | FFWFQTSLDTPWKEVILVYI | -0.719 ± 0.79
43 | CWNKEGRFTRVTMEHASRRA | 0.973 ± 0.48
44 | AGFTLYFGMTRNYQYSDCSP | 4.23 ± 0.066
45 | GNRDSLNMFVCDRILRCPVQ | -0.273 ± 0.33
46 | LVSYSDVGWPLYWFCSVRVP | 1.24 ± 0.2
47 | GLMAWR | 0.154 ± 0.37
48 | NTHFFVMRVEFGPWYTSSCS | 2.42 ± 0.21
49 | RVYMRISFSLSLLIAMSNLI | -0.315 ± 0.64
50 | VRSLN | 0.058 ± 0.6

Row | Substance | amyloid nucleation score
51 | YFMVHIMGTVKIGRW | 3.13 ± 0.098
52 | SSRNASGYAWRVSNCVCVWG | 7.9 ± 0.079
53 | YFSWTWVVFNAFNEVRFWTW | -1.59 ± 0.61
54 | FCESCKWNL | 1.29 ± 0.14
55 | RKIYV | -0.139 ± 0.55
56 | RGALALLVRDAMFFCSLSGF | 4.41 ± 0.1
57 | VKNCDWGIYIILSGFMRVTR | -1.27 ± 1.1
58 | WDYVQVCPNLLVRTLLFMFA | -0.81 ± 0.32
59 | DVHFCNNLLLKRRRGSVVA | -0.153 ± 0.41
60 | GMDSFPFCMCRDCPYWGYDM | -0.745 ± 0.32
61 | RIMPTLLKIPYLWYQSLSCD | -0.081 ± 0.22
62 | NFRPCRVLRFGY | 1.03 ± 0.66
63 | RLSLGLYINALRC | 1.01 ± 0.51
64 | LLFMSSNIFDMCREFDRC | inactive
65 | FPNLFYFADYVLICNLMIKL | 4.585 ± 0.029
66 | KTFRCRRCGNN | 0.721 ± 0.6
67 | MSLLV | 5.695 ± 0.029
68 | CFRFLGREECKLTFGSDEMI | inactive
69 | LYCQFSYVRCKPGKRSDLGW | 1.88 ± 0.23
70 | LSGSY | -0.305 ± 1.1
71 | IYNMRHSMTMFHCYGFLRRV | -0.976 ± 0.63
72 | MKPAWYIVNEWLSGTRLECM | -0.035 ± 0.49
73 | FSHFAPWLSSDLCMWSCYLG | 5.269 ± 0.041
74 | HMQPYIRESISVG | inactive
75 | STSRCMRLHWGTFNYCSNIF | 0.721 ± 0.35

Row | Substance | amyloid nucleation score
76 | MVINSFPPGWVRGHMIKSTG | -0.39 ± 0.76
77 | ICETGMGSKVGHEPVTAQ | 0.598 ± 0.57
78 | LYNEMVRSLVGAICRSRQGY | -0.297 ± 1.1
79 | RKQCNKFGVWDQI | 0.214 ± 0.5
80 | RGMTRVVFTVMLLRLWYSQS | 0.659 ± 0.21
81 | NSGSGAAFGVSLHVVNCARS | 0.045 ± 0.79
82 | HIDNVGVLR | 1.18 ± 0.28
83 | KSDTMLRDYKKWVGHELYTR | 0.066 ± 0.54
84 | TRNAFNCTENISTLPTARYL | -0.399 ± 0.46
85 | RNHVAHH | 2.17 ± 0.21
86 | ISFWSHSDTFVGNEGEHSVR | 1.29 ± 0.42
87 | RVFRCYRIIYMVMI | 0.204 ± 0.19
88 | ETLAVLRIPCSRLYDHIYNF | -0.791 ± 0.78
89 | RMRCLDSVQGLNLIHTDVSV | inactive
90 | ISSYEVELDALIVWGDTSSG | 0.006 ± 0.49
91 | SCSVGRNKMWILVLVVVWGE | 0.035 ± 0.54
92 | CDSDSLGVTYVDDDCGYNYC | -1.03 ± 0.55
93 | MVIQHIDRPDYWISWGHNKG | 5.112 ± 0.048
94 | NTAVSYFNHKSVAFFYFCDL | 4.94 ± 0.064
95 | YRTCNIDGL | inactive
96 | SSYKTLPAMLVARMLINYTV | -1.02 ± 0.45
97 | MDFSSLWGLHFVLCCVSWGR | 0.256 ± 1
98 | VRLSWCNMFNRVFPI | 0.3 ± 0.8
99 | CLSCANL | 0.486 ± 0.66
100 | MLSENADTRCLRMFVSDCQR | 1.26 ± 0.16

Row | Substance | amyloid nucleation score
101 | CDSKVENIWVDLNEMYFFCN | 2.54 ± 0.17
102 | DSWSIMWSLC | -0.272 ± 1.1
103 | LVWIEMVSF | -0.544 ± 0.78
104 | LLFVCVFYVYSSPDNHILAM | -0.633 ± 1.1
105 | DFNIIECSPGRGVHHDDWEP | inactive
106 | SLLMNMS | 0.269 ± 0.37
107 | SVQSSWLNLLAVYIVFCCQR | -0.833 ± 0.54
108 | LVRVGDFG | -0.267 ± 0.54
109 | HGDAKFGSVVGAFQDLYS | 1.29 ± 0.39
110 | FFDRMLYLRVARCTTFWPVD | 0.492 ± 0.64
111 | DNYSRCGICWVSLRVLYVRR | inactive
112 | FEPWWCNSIMRLVVIEGEW | 0.315 ± 0.46
113 | YNMMSKFNIFGYYACKSSWK | 1.27 ± 0.14
114 | EFTAFYGQEFKW | 0.182 ± 1.1
115 | GYSSGFQVAVNLRSTLRQSY | 3.03 ± 0.068
116 | VLCSCCLVVNIVNVLSVHSY | 8.363 ± 0.06
117 | MSLWRVCCFSWPKKVYSNFR | 1.2 ± 0.1
118 | SFCYLLSTISVTIALVKTRG | -0.271 ± 0.5
119 | FRDIVWF | -0.469 ± 0.55
120 | YKWVVPDWSWVLEMALSLPT | 0.346 ± 0.5
121 | NLLTPFRLRPKTHLDLYRSC | -0.196 ± 1.1
122 | RVSQHGEVPSTCFSK | 1.39 ± 0.38
123 | KRWQVLFDRSRKYCRVGKT | 0.161 ± 0.56
124 | TFNRFFRCSVFAFRA | 4.53 ± 0.062
125 | RGIKNVWNL | 0.461 ± 0.54
